Laboratory results reported in article PMC6713926, “Structural Basis for Properdin Oligomerization and Convertase Stimulation in the Human Complement System” (Frontiers in Immunology, 2019).

Biological target: T1, FPht, monomeric FP head-tail protein from co-expression of FPh and FPt (human)
T1 construct: properdin (FP), human, TB-TSR3 head fragment (FPh), expressed with the endogenous FP signal peptide; the head fragment of FPc is residues 28-255; properdin (FP), human, TSR4-6 tail fragment (FPt); the tail fragment of FPc is residues 256-469; also called FPht WT; WT FPht
T1 chain 1: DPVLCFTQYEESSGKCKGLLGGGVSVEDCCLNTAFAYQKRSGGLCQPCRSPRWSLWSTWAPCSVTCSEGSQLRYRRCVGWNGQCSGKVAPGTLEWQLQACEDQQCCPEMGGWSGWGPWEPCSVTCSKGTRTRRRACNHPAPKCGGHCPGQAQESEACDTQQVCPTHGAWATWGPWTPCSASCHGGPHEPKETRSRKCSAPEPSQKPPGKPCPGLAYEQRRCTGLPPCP
T1 chain 2: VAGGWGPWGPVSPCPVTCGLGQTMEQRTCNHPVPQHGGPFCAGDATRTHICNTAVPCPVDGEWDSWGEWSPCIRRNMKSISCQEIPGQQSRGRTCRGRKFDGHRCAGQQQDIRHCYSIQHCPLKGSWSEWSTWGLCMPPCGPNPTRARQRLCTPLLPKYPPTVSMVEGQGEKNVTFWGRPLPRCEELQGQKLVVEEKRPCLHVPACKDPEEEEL
Test: BLI; hFPNb1 amine-coupled on AR2G sensors, FPht (20 μg/mL) loaded on it; C3b, FB variants or C3b + FB at 50 μg/mL each; 30°C; 20 mM MES pH 6.0, 100 mM NaCl, 0.05% Tween, 1 mg/mL BSA, 5 mM MgCl2; FB signal subtracted
Conditions: both partners purified

B1: hFPNb1, FP specific non-inhibitory nanobody (VHH)
VHH: QVQLVESGGGLVQAGGSLRLSCAASERTFTIYAMGWFRQAPGKEREFVAAISRSGENTDYADSVKGRFTISRDNNKNTISLQMNSLKPEDTAVYYCAAGRAILVHTTKKEYDHWGQGTQVTVSS
notes: llama nanobody selected by phage display against FPc
  binding result: binds
